For three substances, Ki and stoichiometry N results are on record in doi:10.1101/2023.03.03.530962.

Experiment [1] addresses PICK1 (protein interacting with C-kinase 1) (UniProt Q9EP80).
UniProt Q9EP80, sequence (Q9EP80 whole entry): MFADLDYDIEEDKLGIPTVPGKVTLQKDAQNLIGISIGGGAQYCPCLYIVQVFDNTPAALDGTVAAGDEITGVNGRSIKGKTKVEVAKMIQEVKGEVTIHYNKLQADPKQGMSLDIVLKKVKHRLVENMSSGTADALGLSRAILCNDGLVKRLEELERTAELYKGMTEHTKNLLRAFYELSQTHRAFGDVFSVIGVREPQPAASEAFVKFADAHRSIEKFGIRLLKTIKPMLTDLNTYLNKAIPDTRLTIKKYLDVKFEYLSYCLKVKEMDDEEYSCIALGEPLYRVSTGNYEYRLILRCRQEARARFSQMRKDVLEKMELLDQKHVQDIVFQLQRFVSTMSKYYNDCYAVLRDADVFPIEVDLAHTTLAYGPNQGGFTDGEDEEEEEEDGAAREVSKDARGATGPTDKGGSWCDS

A word on the Ki: it is a dissociation constant, usually derived from enzyme kinetics or from competition with a known ligand. Low readings indicate a stronger hold on the target, high ones a looser hold on the target. In turn, GCN4(7P14P)-HWLKV (peptide) returned an inhibitory constant (Ki) in experiment [1] of 548 nM.

One may read the stoichiometry N as a count of units in the complex or per binding partner. In the experiment with GCN4-GS (yeast), GCN4-GS (peptide) came in with a stoichiometry N of 2. As for GCN4-HWLKV (peptide), the Ki in experiment [1] is 119 nM. This counts as sub-micromolar.
